The text below walks through data of patent US20210221880A1 (CAS LAMVAC GUANGZHOU BIOMEDICAL TECHNOLOGY, published 2021).

Test [1] deals with T1, ID2a polypeptide with Strep-tag (Plasmodium falciparum).
T1 construct: Expressed in E. coli, predicted about 15 kDa; also called ID2a antigen peptide
T1 chain: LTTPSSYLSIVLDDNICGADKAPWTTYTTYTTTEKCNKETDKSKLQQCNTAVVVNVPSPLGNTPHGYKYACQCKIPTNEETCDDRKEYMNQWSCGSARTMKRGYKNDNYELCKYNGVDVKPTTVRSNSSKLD
The test can be described thus: antigen-specific ELISA, antigen coated at 1 µg/ml. A general note: In an ELISA, binding on a coated surface is turned into a signal by an enzyme label.

Test [2] deals with T2, ID1 polypeptide with Strep-tag (Plasmodium falciparum).
T2 construct: Expressed in E. coli, predicted 17 kDa; also called ID1 antigen peptide
T2 chain: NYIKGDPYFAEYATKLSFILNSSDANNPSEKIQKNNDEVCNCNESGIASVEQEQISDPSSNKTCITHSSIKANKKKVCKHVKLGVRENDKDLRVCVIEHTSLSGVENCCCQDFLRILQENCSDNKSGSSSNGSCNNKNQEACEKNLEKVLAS
The test can be described thus: antigen-specific ELISA, OD450.

The target of test [3] is T3, DBL2X polypeptide with Strep-tag (Plasmodium falciparum).
T3 construct: Expressed in E. coli, predicted 40 kDa; also called DBL2X antigen peptide
T3 chain: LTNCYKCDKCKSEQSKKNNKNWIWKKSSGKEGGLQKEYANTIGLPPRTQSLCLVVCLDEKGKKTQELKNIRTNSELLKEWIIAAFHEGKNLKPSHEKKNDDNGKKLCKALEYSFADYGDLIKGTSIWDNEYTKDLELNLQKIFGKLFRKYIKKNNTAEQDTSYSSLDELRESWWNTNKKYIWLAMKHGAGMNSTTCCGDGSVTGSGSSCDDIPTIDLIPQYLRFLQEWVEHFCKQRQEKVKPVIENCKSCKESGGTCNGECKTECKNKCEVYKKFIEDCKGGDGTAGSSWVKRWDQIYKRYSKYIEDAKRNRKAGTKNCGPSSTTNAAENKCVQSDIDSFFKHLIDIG
Description: antigen-specific ELISA, OD450.

In test [4] the target is T4, rVAR2 recombinant protein with a Strep-tag (prokaryotically expressed and purified) (Plasmodium falciparum).
T4 construct: Expressed in E. coli, about 74 kDa; also called prokaryotically expressed and purified rVAR2 protein; strep-tagged rVAR2 recombinant protein
T4 chain: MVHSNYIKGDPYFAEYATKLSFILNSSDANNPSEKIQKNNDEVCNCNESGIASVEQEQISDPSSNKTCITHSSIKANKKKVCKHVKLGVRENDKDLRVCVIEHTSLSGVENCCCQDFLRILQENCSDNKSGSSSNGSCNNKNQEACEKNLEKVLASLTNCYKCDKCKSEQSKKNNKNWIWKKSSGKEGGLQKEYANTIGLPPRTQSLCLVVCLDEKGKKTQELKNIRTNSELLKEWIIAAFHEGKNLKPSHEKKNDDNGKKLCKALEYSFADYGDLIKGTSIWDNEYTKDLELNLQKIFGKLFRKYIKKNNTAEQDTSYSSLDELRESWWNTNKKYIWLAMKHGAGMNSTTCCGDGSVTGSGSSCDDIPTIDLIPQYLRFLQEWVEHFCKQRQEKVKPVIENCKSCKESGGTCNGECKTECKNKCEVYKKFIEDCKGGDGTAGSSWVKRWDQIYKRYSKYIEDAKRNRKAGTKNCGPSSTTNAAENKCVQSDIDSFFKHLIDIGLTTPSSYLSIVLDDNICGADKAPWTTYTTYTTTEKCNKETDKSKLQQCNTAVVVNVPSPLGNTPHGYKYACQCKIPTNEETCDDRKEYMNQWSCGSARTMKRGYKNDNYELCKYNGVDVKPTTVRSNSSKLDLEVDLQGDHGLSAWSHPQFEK
The test can be described thus: Western blot, 5H4 as primary antibody. (In general: In western blotting, separated proteins are transferred to a membrane and probed.)

The target of test [5] is T5, rVAR2 recombinant protein with the 3xFLAG-tag (eukaryotically expressed and purified) (Plasmodium falciparum, Possible post-translational modification (runs at about 115 kDa against 76 kDa predicted); not carried by the letters.).
T5 construct: Expressed in HEK293 or HEK293T cells; Predicted about 76 kDa, runs at about 115 kDa (possible post-translational modification); also called eukaryotically expressed and purified rVAR2 protein
T5 chain: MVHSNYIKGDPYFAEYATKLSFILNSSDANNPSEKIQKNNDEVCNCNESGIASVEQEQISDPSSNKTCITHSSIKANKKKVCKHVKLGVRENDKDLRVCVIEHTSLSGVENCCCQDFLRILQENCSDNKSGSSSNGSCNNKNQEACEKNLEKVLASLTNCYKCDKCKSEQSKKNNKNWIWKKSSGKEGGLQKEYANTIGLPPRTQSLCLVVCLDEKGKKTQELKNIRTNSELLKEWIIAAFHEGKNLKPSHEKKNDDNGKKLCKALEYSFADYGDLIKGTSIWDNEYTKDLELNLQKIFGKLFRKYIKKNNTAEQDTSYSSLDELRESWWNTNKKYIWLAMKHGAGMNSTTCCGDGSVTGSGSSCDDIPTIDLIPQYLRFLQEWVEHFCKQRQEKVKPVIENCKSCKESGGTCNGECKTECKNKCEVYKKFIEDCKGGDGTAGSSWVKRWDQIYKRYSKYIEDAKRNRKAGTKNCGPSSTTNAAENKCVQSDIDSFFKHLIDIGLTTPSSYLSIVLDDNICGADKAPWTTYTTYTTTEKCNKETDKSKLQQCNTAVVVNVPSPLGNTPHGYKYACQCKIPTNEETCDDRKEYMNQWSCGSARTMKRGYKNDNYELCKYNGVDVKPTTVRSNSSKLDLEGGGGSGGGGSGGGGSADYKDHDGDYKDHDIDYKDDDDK
Description: Western blot, 5H4 as primary antibody.

B1: anti-rVAR2 monoclonal antibody 5H4 (antibody, V domains shown)
VH: EVKLVESGGGLVKPGGSLKLSCAASGFTFSNYAMSWVRQSPERRLEWVAEISITGRYTYYPDTVTGRFTISRDNAKNTLYLEMSSLRSEDTAMYYCTREGYDYAPSWFAYWGQGTLVTVSA
VL: DVVMTQTPLSLPVSLGDQASISCRSGQTLVHRNGITYLEWYLQKPGQSPKLLIYKVSNRFSGVPDRFSGSGSGTDFTLKISRVEAEDLGIYYCFQGSHVPRTFGGGTKLEIK
notes: Murine IgG from a mouse B cell hybridoma, purified from hybridoma supernatant; isotype and constant regions are not; also called murine monoclonal antibody 5H4
In the case of B1, the binding result is recorded as “binds” in test [1]; “no binding (tested: antigen coated at 1 µg/ml)” in test [2]; “no binding (tested: antigen coated at 1 µg/ml)” in test [3]; “binds” in test [4]; “binds” in test [5].
